Where a chain is given by its changes, count along the chain named.
Legend:
Assay in all cases: holdup assay
Design in all cases: key: below the threshold = too weak to quantify, mostly under pKd 3.1 to 4
APBA1_2, Q02410 = target: T1, APBA1_2, Q02410
T1 sequence (Q02410 742-832, limits assumed, looked up): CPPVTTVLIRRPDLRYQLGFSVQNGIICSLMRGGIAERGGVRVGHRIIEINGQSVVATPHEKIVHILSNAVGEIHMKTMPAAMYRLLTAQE

APBA2_2, Q99767 = target: T2, APBA2_2, Q99767
T2 sequence (Q99767 654-744, limits assumed, looked up): T1 sequence (Q02410 742-832, limits assumed, looked up) with R10K, R15K, P59A, H65Q, I66A, A70S, Y84F, A89G

ARHGAP21, Q5T5U3 = target: T3, ARHGAP21, Q5T5U3
T3 sequence (Q5T5U3 45-169, limits assumed, looked up): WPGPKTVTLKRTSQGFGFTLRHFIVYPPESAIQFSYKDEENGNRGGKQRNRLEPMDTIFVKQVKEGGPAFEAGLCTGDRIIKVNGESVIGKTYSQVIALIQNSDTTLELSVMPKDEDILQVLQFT

ARHGEF12, Q9NZN5-2 = target: ARHGEF12, Q9NZN5-2
Chain of ARHGEF12, Q9NZN5-2 (Q9NZN5 other isoform, or with tags, fused parts or gaps): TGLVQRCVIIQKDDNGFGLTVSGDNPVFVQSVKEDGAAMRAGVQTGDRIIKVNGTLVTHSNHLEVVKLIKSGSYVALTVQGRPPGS

CASK, O14936 = target: CASK, O14936
Chain of CASK, O14936 (O14936 487-570): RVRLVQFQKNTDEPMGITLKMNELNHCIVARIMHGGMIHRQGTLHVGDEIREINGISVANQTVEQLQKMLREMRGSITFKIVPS

DLG1_1, Q12959 = target: DLG1_1, Q12959
DLG2_2, Q15700 = target: DLG2_2, Q15700
Chain of DLG2_2, Q15700 (Q15700 189-283): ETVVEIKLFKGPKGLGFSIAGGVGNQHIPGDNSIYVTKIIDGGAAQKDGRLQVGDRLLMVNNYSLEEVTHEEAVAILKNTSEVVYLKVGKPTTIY

DLG4_1, P78352 = target: DLG4_1, P78352
Chain of DLG4_1, P78352 (P78352 62-152): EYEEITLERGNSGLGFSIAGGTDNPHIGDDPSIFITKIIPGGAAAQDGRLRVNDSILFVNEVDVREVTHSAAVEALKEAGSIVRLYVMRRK

FRMPD2_1, Q68DX3 = target: FRMPD2_1, Q68DX3
Chain of FRMPD2_1, Q68DX3 (Q68DX3 770-861): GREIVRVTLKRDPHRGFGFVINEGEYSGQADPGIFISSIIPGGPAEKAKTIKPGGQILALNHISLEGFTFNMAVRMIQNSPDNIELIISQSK

FRMPD4, Q14CM0 = target: FRMPD4, Q14CM0
Chain of FRMPD4, Q14CM0 (Q14CM0 67-160): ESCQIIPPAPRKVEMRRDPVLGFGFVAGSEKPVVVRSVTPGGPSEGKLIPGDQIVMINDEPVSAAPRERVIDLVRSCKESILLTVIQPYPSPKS

GORASP2, Q9H8Y8 = target: GORASP2, Q9H8Y8
GRID2IP_1, A4D2P6 = target: GRID2IP_1, A4D2P6
Chain of GRID2IP_1, A4D2P6 (A4D2P6 1-87): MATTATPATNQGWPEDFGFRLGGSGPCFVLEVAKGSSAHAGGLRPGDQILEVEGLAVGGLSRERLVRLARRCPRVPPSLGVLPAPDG

GRIP1_4, Q9Y3R0 = target: T4, GRIP1_4, Q9Y3R0
T4 sequence (Q9Y3R0 467-571, limits assumed, looked up): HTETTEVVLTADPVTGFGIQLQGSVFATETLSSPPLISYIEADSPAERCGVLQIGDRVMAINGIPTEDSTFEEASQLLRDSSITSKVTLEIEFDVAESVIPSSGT

GRIP2_3, Q9C0E4 = target: GRIP2_3, Q9C0E4
Chain of GRIP2_3, Q9C0E4 (Q9C0E4 238-339): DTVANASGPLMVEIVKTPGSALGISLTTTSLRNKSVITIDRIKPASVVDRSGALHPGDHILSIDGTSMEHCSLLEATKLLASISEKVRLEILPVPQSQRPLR

IL16_4, Q14005 = target: IL16_4, Q14005
Chain of IL16_4, Q14005 (Q14005 1229-1329): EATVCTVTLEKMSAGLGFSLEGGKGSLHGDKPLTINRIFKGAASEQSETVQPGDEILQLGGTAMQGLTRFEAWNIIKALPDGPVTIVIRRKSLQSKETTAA

Inadl_2, Q8NI35 = target: Inadl_2, Q8NI35
Chain of Inadl_2, Q8NI35 (Q8NI35 238-335): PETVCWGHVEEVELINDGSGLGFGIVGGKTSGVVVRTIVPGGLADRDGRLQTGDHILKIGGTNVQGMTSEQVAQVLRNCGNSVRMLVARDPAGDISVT

LIMK2, P53671 = target: LIMK2, P53671
Chain of LIMK2, P53671 (P53671 143-248): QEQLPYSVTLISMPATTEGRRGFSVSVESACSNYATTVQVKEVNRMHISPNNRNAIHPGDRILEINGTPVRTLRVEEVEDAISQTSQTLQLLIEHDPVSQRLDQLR

MAGI2_4, Q86UL8 = target: MAGI2_4, Q86UL8
Chain of MAGI2_4, Q86UL8 (Q86UL8 772-865): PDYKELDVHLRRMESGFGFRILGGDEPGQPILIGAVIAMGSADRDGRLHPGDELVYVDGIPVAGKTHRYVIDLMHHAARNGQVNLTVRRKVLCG

MAGI2_6, Q86UL8 = target: MAGI2_6, Q86UL8
Chain of MAGI2_6, Q86UL8 (Q86UL8 1141-1229): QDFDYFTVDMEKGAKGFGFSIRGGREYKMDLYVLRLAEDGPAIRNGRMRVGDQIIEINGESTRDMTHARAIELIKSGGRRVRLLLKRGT

MAGI3_2, Q5TCQ9 = target: MAGI3_2, Q5TCQ9
Chain of MAGI3_2, Q5TCQ9 (Q5TCQ9 398-503): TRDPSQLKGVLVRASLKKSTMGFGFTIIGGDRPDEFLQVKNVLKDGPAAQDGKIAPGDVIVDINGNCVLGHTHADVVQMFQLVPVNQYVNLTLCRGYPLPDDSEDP

MPP2, Q14168 = target: T5, MPP2, Q14168
T5 sequence (Q14168 180-250, limits assumed, looked up): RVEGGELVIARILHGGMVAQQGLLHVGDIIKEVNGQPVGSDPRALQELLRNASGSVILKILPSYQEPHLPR

MPP6, Q9NZW5 = target: T6, MPP6, Q9NZW5
T6 sequence (Q9NZW5 125-219, limits assumed, looked up): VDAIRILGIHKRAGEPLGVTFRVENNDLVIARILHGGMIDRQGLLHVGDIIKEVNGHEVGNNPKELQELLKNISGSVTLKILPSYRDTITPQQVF

NHERF2_2, Q15599 = target: NHERF2_2, Q15599
Chain of NHERF2_2, Q15599 (Q15599 142-238): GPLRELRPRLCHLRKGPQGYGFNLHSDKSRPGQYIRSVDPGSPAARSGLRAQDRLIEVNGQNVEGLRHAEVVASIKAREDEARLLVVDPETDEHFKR

NHERF3_3, Q5T2W1 = target: T7, NHERF3_3, Q5T2W1
T7 sequence (Q5T2W1 238-333, limits assumed, looked up): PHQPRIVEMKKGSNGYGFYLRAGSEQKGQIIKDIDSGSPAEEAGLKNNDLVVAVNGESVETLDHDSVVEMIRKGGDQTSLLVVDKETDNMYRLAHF

PCLO, Q9Y6V0 = target: T8, PCLO, Q9Y6V0
T8 sequence (Q9Y6V0 4491-4600, limits assumed, looked up): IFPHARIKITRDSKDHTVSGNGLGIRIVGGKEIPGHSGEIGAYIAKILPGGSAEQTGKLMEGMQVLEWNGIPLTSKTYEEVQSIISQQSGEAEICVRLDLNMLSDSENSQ

PDLIM1, O00151 = target: PDLIM1, O00151
Chain of PDLIM1, O00151 (O00151 1-87): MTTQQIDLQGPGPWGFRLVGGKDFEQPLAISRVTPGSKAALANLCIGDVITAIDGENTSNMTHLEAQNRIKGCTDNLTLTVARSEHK

SNTA1, Q13424 = target: T9, SNTA1, Q13424
T9 sequence (Q13424 82-180, limits assumed, looked up): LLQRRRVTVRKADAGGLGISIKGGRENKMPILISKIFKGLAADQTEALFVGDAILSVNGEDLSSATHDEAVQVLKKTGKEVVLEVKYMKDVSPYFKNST

TJP2_1, Q9UDY2 = target: TJP2_1, Q9UDY2
Chain of TJP2_1, Q9UDY2 (Q9UDY2 24-128): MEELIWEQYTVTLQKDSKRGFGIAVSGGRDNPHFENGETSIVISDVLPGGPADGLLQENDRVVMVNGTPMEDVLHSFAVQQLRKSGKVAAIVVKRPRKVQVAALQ

[1] = plain residues with an end cap or a label only (N-terminal biotin on a linker: ado-ado)
[2] = plain residues with an end cap or a label only (N-terminal biotin on a linker: (peg)3)

Measured: pKd

RPGFASESKV [ADRB1, P08588]
3.87: DLG2_2, Q15700; [1]
5.13: MAGI3_2, Q5TCQ9; [1]
below the threshold: APBA2_2, Q99767; [1] | CASK, O14936; [1] | FRMPD2_1, Q68DX3; [1] | FRMPD4, Q14CM0; [1] | GORASP2, Q9H8Y8; [1] | GRID2IP_1, A4D2P6; [1] | GRIP1_4, Q9Y3R0; [1] | GRIP2_3, Q9C0E4; [1] | IL16_4, Q14005; [1] | Inadl_2, Q8NI35; [1] | LIMK2, P53671; [1] | MAGI2_4, Q86UL8; [1] | MAGI2_6, Q86UL8; [1] | MPP2, Q14168; [1] | MPP6, Q9NZW5; [1] | NHERF2_2, Q15599; [1] | NHERF3_3, Q5T2W1; [1] | PCLO, Q9Y6V0; [1] | PDLIM1, O00151; [1] | TJP2_1, Q9UDY2; [1]
4.28: SNTA1, Q13424; [1]
3.71: DLG1_1, Q12959; [1]
3.82: APBA1_2, Q02410; [1]
3.52: ARHGEF12, Q9NZN5-2; [1]
4.03: DLG4_1, P78352; [1]
3.98: ARHGAP21, Q5T5U3; [1]

RTQSSDSAYV [GJD2, Q9UKL4]
below the threshold: APBA2_2, Q99767; [1] | CASK, O14936; [1] | DLG1_1, Q12959; [1] | DLG2_2, Q15700; [1] | DLG4_1, P78352; [1] | GRID2IP_1, A4D2P6; [1] | GRIP1_4, Q9Y3R0; [1] | GRIP2_3, Q9C0E4; [1] | IL16_4, Q14005; [1] | Inadl_2, Q8NI35; [1] | LIMK2, P53671; [1] | MAGI2_4, Q86UL8; [1] | MAGI3_2, Q5TCQ9; [1] | MPP2, Q14168; [1] | MPP6, Q9NZW5; [1] | NHERF3_3, Q5T2W1; [1] | PCLO, Q9Y6V0; [1] | PDLIM1, O00151; [1] | SNTA1, Q13424; [1]
3.78: GORASP2, Q9H8Y8; [1]
3.86: FRMPD4, Q14CM0; [1]
3.58: MAGI2_6, Q86UL8; [1]
4.35: ARHGEF12, Q9NZN5-2; [1]
3.62: ARHGAP21, Q5T5U3; [1]
3.49: NHERF2_2, Q15599; [1]
4.09: APBA1_2, Q02410; [1] | TJP2_1, Q9UDY2; [1]
3.66: FRMPD2_1, Q68DX3; [1]

GQETPLNTFC [MAP7D2, Q96T17]
3.94: NHERF2_2, Q15599; [1]
3.77: ARHGEF12, Q9NZN5-2; [1]
3.62: MPP6, Q9NZW5; [1]
below the threshold: APBA1_2, Q02410; [1] | APBA2_2, Q99767; [1] | ARHGAP21, Q5T5U3; [1] | CASK, O14936; [1] | DLG1_1, Q12959; [1] | DLG2_2, Q15700; [1] | DLG4_1, P78352; [1] | FRMPD2_1, Q68DX3; [1] | FRMPD4, Q14CM0; [1] | GORASP2, Q9H8Y8; [1] | GRID2IP_1, A4D2P6; [1] | GRIP1_4, Q9Y3R0; [1] | GRIP2_3, Q9C0E4; [1] | IL16_4, Q14005; [1] | Inadl_2, Q8NI35; [1] | LIMK2, P53671; [1] | MAGI2_4, Q86UL8; [1] | MAGI2_6, Q86UL8; [1] | MAGI3_2, Q5TCQ9; [1] | MPP2, Q14168; [1] | NHERF3_3, Q5T2W1; [1] | PCLO, Q9Y6V0; [1] | PDLIM1, O00151; [1] | SNTA1, Q13424; [1] | TJP2_1, Q9UDY2; [1]

YDEPTTTTSVPL [SARS-Cov2-3a, P0DTC3]
3.97: FRMPD4, Q14CM0; [2]
3.75: ARHGAP21, Q5T5U3; [2]
below the threshold: APBA1_2, Q02410; [2] | APBA2_2, Q99767; [2] | ARHGEF12, Q9NZN5-2; [2] | CASK, O14936; [2] | DLG1_1, Q12959; [2] | DLG2_2, Q15700; [2] | DLG4_1, P78352; [2] | FRMPD2_1, Q68DX3; [2] | GORASP2, Q9H8Y8; [2] | GRID2IP_1, A4D2P6; [2] | GRIP1_4, Q9Y3R0; [2] | GRIP2_3, Q9C0E4; [2] | IL16_4, Q14005; [2] | Inadl_2, Q8NI35; [2] | LIMK2, P53671; [2] | MAGI2_4, Q86UL8; [2] | MAGI2_6, Q86UL8; [2] | MAGI3_2, Q5TCQ9; [2] | MPP2, Q14168; [2] | MPP6, Q9NZW5; [2] | NHERF2_2, Q15599; [2] | NHERF3_3, Q5T2W1; [2] | PCLO, Q9Y6V0; [2] | PDLIM1, O00151; [2] | SNTA1, Q13424; [2] | TJP2_1, Q9UDY2; [2]
